Data on 17 molecules can be found in patent publication US20220169728A1 (AB THERAPEUTICS, published 2022).

One may read the EC50 (read off the curve) as the concentration needed to bring the measured effect to its halfway point. A higher EC50 (read off the curve) goes with weaker potency.

To fix the notation:
T1: CD55 (UniProt P08174 35-353, limits assumed)
T1 construct: whole, on cells; also called CD55 on Rituximab resistant Raji cells (RRCL)
T1 sequence (looked up): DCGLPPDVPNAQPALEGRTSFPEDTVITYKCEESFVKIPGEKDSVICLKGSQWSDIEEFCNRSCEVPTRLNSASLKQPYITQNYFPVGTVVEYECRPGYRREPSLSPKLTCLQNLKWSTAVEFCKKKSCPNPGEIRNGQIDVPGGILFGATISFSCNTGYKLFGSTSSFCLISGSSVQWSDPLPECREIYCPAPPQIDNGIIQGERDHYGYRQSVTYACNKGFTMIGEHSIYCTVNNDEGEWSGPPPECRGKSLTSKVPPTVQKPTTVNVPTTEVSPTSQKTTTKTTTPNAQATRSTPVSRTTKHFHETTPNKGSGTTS

T2: CD20 (UniProt P11836 1-297, limits assumed)
T2 construct: whole, on cells; also called CD20 on Raji cells
T2 sequence (looked up): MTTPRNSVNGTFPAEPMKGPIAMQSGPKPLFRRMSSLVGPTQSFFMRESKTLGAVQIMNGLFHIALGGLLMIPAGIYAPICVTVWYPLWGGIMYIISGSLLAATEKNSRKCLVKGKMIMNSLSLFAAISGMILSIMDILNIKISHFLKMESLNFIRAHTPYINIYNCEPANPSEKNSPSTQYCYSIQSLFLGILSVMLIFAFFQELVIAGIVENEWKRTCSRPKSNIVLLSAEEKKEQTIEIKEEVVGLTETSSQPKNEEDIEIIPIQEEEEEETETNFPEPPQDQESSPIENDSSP

B1: anti-CD55 antibody with CD55VH (SEQ ID NO: 14) N100E and VL (SEQ ID NO: 15) (antibody, V domains shown)
VH: QVKLQESGGGLVQPGGSLKLSCAASGFTFSGYGMSWIRQTPDKRLEWVATINSGGSYTYYSDSVKGRFTISRDNVKNTLYLQMSSLKSEDTAMYYCARREGTLYYYLMDYWGRGTLVTVSS
VL: QSVLTQPPSASGSPGQSVTISCTGTSSDVGGYNYVSWYQQHPGKAPKFMIYDVSKRPSGVSNRFSGSKSGNTASLTISGVQAEDEADYYCSSYTSASTVIFGGGTKLTVL
notes: also called Test 24
B2: anti-CD55 antibody with CD55VH (SEQ ID NO: 14) N100M and VL (SEQ ID NO: 15) (antibody, V domains shown)
VH: QVKLQESGGGLVQPGGSLKLSCAASGFTFSGYGMSWIRQTPDKRLEWVATINSGGSYTYYSDSVKGRFTISRDNVKNTLYLQMSSLKSEDTAMYYCARRMGTLYYYLMDYWGRGTLVTVSS
VL: QSVLTQPPSASGSPGQSVTISCTGTSSDVGGYNYVSWYQQHPGKAPKFMIYDVSKRPSGVSNRFSGSKSGNTASLTISGVQAEDEADYYCSSYTSASTVIFGGGTKLTVL
notes: also called Test 19
B3: anti-CD55 antibody with CD55VH (SEQ ID NO: 14) N100Y and VL (SEQ ID NO: 15) (antibody, V domains shown)
VH: QVKLQESGGGLVQPGGSLKLSCAASGFTFSGYGMSWIRQTPDKRLEWVATINSGGSYTYYSDSVKGRFTISRDNVKNTLYLQMSSLKSEDTAMYYCARRYGTLYYYLMDYWGRGTLVTVSS
VL: QSVLTQPPSASGSPGQSVTISCTGTSSDVGGYNYVSWYQQHPGKAPKFMIYDVSKRPSGVSNRFSGSKSGNTASLTISGVQAEDEADYYCSSYTSASTVIFGGGTKLTVL
notes: also called Test 16
B4: anti-CD55 antibody with CD55VH (SEQ ID NO: 14) N100F and VL (SEQ ID NO: 15) (antibody, V domains shown)
VH: QVKLQESGGGLVQPGGSLKLSCAASGFTFSGYGMSWIRQTPDKRLEWVATINSGGSYTYYSDSVKGRFTISRDNVKNTLYLQMSSLKSEDTAMYYCARRFGTLYYYLMDYWGRGTLVTVSS
VL: QSVLTQPPSASGSPGQSVTISCTGTSSDVGGYNYVSWYQQHPGKAPKFMIYDVSKRPSGVSNRFSGSKSGNTASLTISGVQAEDEADYYCSSYTSASTVIFGGGTKLTVL
notes: also called Test 18
B5: anti-CD55 antibody with CD55VH (SEQ ID NO: 14) N100H and VL (SEQ ID NO: 15) (antibody, V domains shown)
VH: QVKLQESGGGLVQPGGSLKLSCAASGFTFSGYGMSWIRQTPDKRLEWVATINSGGSYTYYSDSVKGRFTISRDNVKNTLYLQMSSLKSEDTAMYYCARRHGTLYYYLMDYWGRGTLVTVSS
VL: QSVLTQPPSASGSPGQSVTISCTGTSSDVGGYNYVSWYQQHPGKAPKFMIYDVSKRPSGVSNRFSGSKSGNTASLTISGVQAEDEADYYCSSYTSASTVIFGGGTKLTVL
notes: also called Test 21
B6: anti-CD55 antibody with CD55VH (SEQ ID NO: 14) T102G and VL (SEQ ID NO: 15) (antibody, V domains shown)
VH: QVKLQESGGGLVQPGGSLKLSCAASGFTFSGYGMSWIRQTPDKRLEWVATINSGGSYTYYSDSVKGRFTISRDNVKNTLYLQMSSLKSEDTAMYYCARRNGGLYYYLMDYWGRGTLVTVSS
VL: QSVLTQPPSASGSPGQSVTISCTGTSSDVGGYNYVSWYQQHPGKAPKFMIYDVSKRPSGVSNRFSGSKSGNTASLTISGVQAEDEADYYCSSYTSASTVIFGGGTKLTVL
notes: also called Test 27
B7: anti-CD55 antibody with CD55VH (SEQ ID NO: 14) T102M and VL (SEQ ID NO: 15) (antibody, V domains shown)
VH: QVKLQESGGGLVQPGGSLKLSCAASGFTFSGYGMSWIRQTPDKRLEWVATINSGGSYTYYSDSVKGRFTISRDNVKNTLYLQMSSLKSEDTAMYYCARRNGMLYYYLMDYWGRGTLVTVSS
VL: QSVLTQPPSASGSPGQSVTISCTGTSSDVGGYNYVSWYQQHPGKAPKFMIYDVSKRPSGVSNRFSGSKSGNTASLTISGVQAEDEADYYCSSYTSASTVIFGGGTKLTVL
notes: also called Test 26
B8: anti-CD55 antibody with CD55VH (SEQ ID NO: 14) N100Q (printed "N1000") and VL (SEQ ID NO: 15) (antibody, V domains shown)
VH: QVKLQESGGGLVQPGGSLKLSCAASGFTFSGYGMSWIRQTPDKRLEWVATINSGGSYTYYSDSVKGRFTISRDNVKNTLYLQMSSLKSEDTAMYYCARRQGTLYYYLMDYWGRGTLVTVSS
VL: QSVLTQPPSASGSPGQSVTISCTGTSSDVGGYNYVSWYQQHPGKAPKFMIYDVSKRPSGVSNRFSGSKSGNTASLTISGVQAEDEADYYCSSYTSASTVIFGGGTKLTVL
notes: The cell prints "N1000"; also called Test 22
B9: anti-CD55 antibody with CD55VH (SEQ ID NO: 14) N100K and VL (SEQ ID NO: 15) (antibody, V domains shown)
VH: QVKLQESGGGLVQPGGSLKLSCAASGFTFSGYGMSWIRQTPDKRLEWVATINSGGSYTYYSDSVKGRFTISRDNVKNTLYLQMSSLKSEDTAMYYCARRKGTLYYYLMDYWGRGTLVTVSS
VL: QSVLTQPPSASGSPGQSVTISCTGTSSDVGGYNYVSWYQQHPGKAPKFMIYDVSKRPSGVSNRFSGSKSGNTASLTISGVQAEDEADYYCSSYTSASTVIFGGGTKLTVL
notes: also called Test 13
B10: anti-CD55 antibody with CD55VH (SEQ ID NO: 14) N100V and VL (SEQ ID NO: 15) (antibody, V domains shown)
VH: QVKLQESGGGLVQPGGSLKLSCAASGFTFSGYGMSWIRQTPDKRLEWVATINSGGSYTYYSDSVKGRFTISRDNVKNTLYLQMSSLKSEDTAMYYCARRVGTLYYYLMDYWGRGTLVTVSS
VL: QSVLTQPPSASGSPGQSVTISCTGTSSDVGGYNYVSWYQQHPGKAPKFMIYDVSKRPSGVSNRFSGSKSGNTASLTISGVQAEDEADYYCSSYTSASTVIFGGGTKLTVL
notes: also called Test 15
B11: anti-CD55 antibody with CD55VH (SEQ ID NO: 14) N100I and VL (SEQ ID NO: 15) (antibody, V domains shown)
VH: QVKLQESGGGLVQPGGSLKLSCAASGFTFSGYGMSWIRQTPDKRLEWVATINSGGSYTYYSDSVKGRFTISRDNVKNTLYLQMSSLKSEDTAMYYCARRIGTLYYYLMDYWGRGTLVTVSS
VL: QSVLTQPPSASGSPGQSVTISCTGTSSDVGGYNYVSWYQQHPGKAPKFMIYDVSKRPSGVSNRFSGSKSGNTASLTISGVQAEDEADYYCSSYTSASTVIFGGGTKLTVL
notes: also called Test 23
B12: anti-CD55 antibody with CD55VH (SEQ ID NO: 14) N100L and VL (SEQ ID NO: 15) (antibody, V domains shown)
VH: QVKLQESGGGLVQPGGSLKLSCAASGFTFSGYGMSWIRQTPDKRLEWVATINSGGSYTYYSDSVKGRFTISRDNVKNTLYLQMSSLKSEDTAMYYCARRLGTLYYYLMDYWGRGTLVTVSS
VL: QSVLTQPPSASGSPGQSVTISCTGTSSDVGGYNYVSWYQQHPGKAPKFMIYDVSKRPSGVSNRFSGSKSGNTASLTISGVQAEDEADYYCSSYTSASTVIFGGGTKLTVL
notes: also called Test 17
B13: anti-CD55 antibody with CD55VH (SEQ ID NO: 14) N100T and VL (SEQ ID NO: 15) (antibody, V domains shown)
VH: QVKLQESGGGLVQPGGSLKLSCAASGFTFSGYGMSWIRQTPDKRLEWVATINSGGSYTYYSDSVKGRFTISRDNVKNTLYLQMSSLKSEDTAMYYCARRTGTLYYYLMDYWGRGTLVTVSS
VL: QSVLTQPPSASGSPGQSVTISCTGTSSDVGGYNYVSWYQQHPGKAPKFMIYDVSKRPSGVSNRFSGSKSGNTASLTISGVQAEDEADYYCSSYTSASTVIFGGGTKLTVL
notes: also called Test 14
B14: parental anti-CD20 IgG (Parental CD20) (antibody, V domains shown)
VH: QVQLQQPGAELVKPGASVKMSCKASGYTFTSYNMHWVKQTPGRGLEWIGAIYPGNGDTSYNQKFKGKATLTADKSSSTAYMQLSSLTSEDSAVYYCARSTYYGGDWYFNVWGAGTTVTVSA
VL: QIVLSQSPAILSASPGEKVTMTCRASSSVSYIHWFQQKPGSSPKPWIYATSNLASGVPVRFSGSGSGTSYSLTISRVEAEDAATYYCQQWTSNPPTFGGGTKLEIKR
notes: IgG; also called Rituximab; CD20 parental Ab
B15: CD20 homodimer IgG containing the designed VH sequence (SEQ ID NO: 1) and the common VL sequence (SEQ ID NO: 3) (antibody, V domains shown)
VH: QVQLQQPGAELVKPGASVKMSCKASGYTFTSYNMHWVKQTPGRGLEWIGAIYPGNGDTSYNQKFKGKATLTADKSSSTAYMQLSSLRSEDSAVYYCARSTYYGGDWYFNVWGAGTTVTVSA
VL: QIVLSQSPAILSASPGEKVTMTCRASSSVSYIHWFQQKPGSSPKPWIYATSNLASGVPVRFSGSGSGTSYSLTISRVEAEDAATYYCQQWTSNPPTFGGGTKLEIKR
notes: IgG homodimer with two VHa and two common VL; also called redesigned Rituximab; antibody A
B16: parental anti-CD3 IgG (Parental CD3) (antibody, V domains shown)
VH: QVQLQQSGAELARPGASVKMSCKASGYTFTSYTMHWVKQRPGQGLEWIGYINPSSGYTKYNQKFKDKATLTADKSSSTAYMQLSSLTSEDSAVYYCARWQDYDVYFDYWGQGTTLTVSS
VL: QIVLSQSPAILSASPGEKVTMTCRASSSVSYMHWYQQKPGSSPKPWIYATSNLASGVPARFSGSGSGTSYSLTISRVEAEDAATYYCQQWSSNPPTFGGGTKLETKR
notes: IgG; also called MAb 12F6; CD3 parental Ab
B17: CD3 homodimer IgG containing the designed VH sequence (SEQ ID NO: 2) and the common VL sequence (SEQ ID NO: 3) (antibody, V domains shown)
VH: EVQLQESGAELARPGASVKMSCKASGYTFTSYTMHWVKQRPGEGLEWIGYINPSSGYTKYNQKFKDKATLTADKSSSTAYMELSSLTSEDSAVYYCARWQDYDVYFDYWGEGTTLTVSS
VL: QIVLSQSPAILSASPGEKVTMTCRASSSVSYIHWFQQKPGSSPKPWIYATSNLASGVPVRFSGSGSGTSYSLTISRVEAEDAATYYCQQWTSNPPTFGGGTKLEIKR
notes: IgG homodimer with two VHb and two common VL; also called redesigned 12F6; antibody B

T3 sequence (P07766 23-207 limits assumed, chain 1 of 3): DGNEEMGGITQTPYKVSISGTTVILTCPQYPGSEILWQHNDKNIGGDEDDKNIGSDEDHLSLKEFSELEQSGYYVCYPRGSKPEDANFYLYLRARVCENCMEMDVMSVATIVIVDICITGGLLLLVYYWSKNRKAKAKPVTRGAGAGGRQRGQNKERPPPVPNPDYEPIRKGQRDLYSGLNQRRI
T3 sequence (P04234 22-171 limits assumed, chain 2 of 3): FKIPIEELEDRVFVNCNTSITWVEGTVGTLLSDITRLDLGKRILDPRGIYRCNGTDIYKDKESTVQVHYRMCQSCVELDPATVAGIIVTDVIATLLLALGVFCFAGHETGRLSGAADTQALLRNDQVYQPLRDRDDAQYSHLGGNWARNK
T3 sequence (P09693 23-182 limits assumed, chain 3 of 3): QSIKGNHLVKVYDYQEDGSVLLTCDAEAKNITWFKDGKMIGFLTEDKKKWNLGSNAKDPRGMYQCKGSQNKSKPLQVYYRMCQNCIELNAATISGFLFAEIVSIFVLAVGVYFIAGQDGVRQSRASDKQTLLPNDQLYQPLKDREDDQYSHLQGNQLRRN

The first assay addresses T1, CD55. Kind of assay: binding at 5 µg/ml against the unmutated antibody (SEQ ID NO: 14 + 15); format not stated.
Turning to B1, the “Function remaining percentage (5 µg/ml)” value was found to be 17%. For the molecule B2, the “Function remaining percentage (5 µg/ml)” value worked out at 86%. Still for that read-out and setting: the result for B3 reads 95%; that for B4, 86%; that for B5, 72%. The same measure, in the same setting: under B6 stands 17%.

Take B7: the “Function remaining percentage (5 µg/ml)” value was found to be 98%. The same measure, in the same setting: under B8 stands 62%.

As for B9, the “Function remaining percentage (5 µg/ml)” value is 106%. On the same count and under the same terms, the result for B10 reads 94%; that for B11, 62%; that for B12, 92%.

For the molecule B13, the “Function remaining percentage (5 µg/ml)” value worked out at 96%.

A further assay has as its target T3, CD3 (Homo sapiens (Human), UniProt P07766 23-207; P04234 22-171; P09693 23-182).
T3 construct: also called CD3 on Jurkat cells
As to the kind of experiment: flow cytometry binding to CD3+ Jurkat cells, antibody titration, Cy3 goat anti-human IgG detection. Background: In flow cytometry, cells or beads pass a laser one at a time.
On to B14, for which the binding result was “no binding (tested: 10 µg/ml)”. On the same count and under the same terms, the result for B15 reads “no binding (tested: 10 µg/ml)”.

A further assay deals with T2, CD20. As to the kind of experiment: flow cytometry binding to CD20+ Raji cells, antibody titration, Cy3 goat anti-human IgG detection.
Consider B14, for which the “EC50 (read off the curve)” value was around 0.2 µg/mL. Take B16: the binding result is “no binding (tested: 10 µg/ml)”.

Consider B15, for which the “EC50 (read off the curve)” value was around 0.4 µg/mL.

For B17, the binding result was “no binding (tested: 10 µg/ml)”.
